Test results as given in a protein production outcome set (Wang et al. 2014).

Test: label from the status in PepcDB records

Sequence	protein production
MMRFVIGFLLSILASISLVSPANAAVIDHDKVVGFEEVTPTTITQKVAKRFQPYLTVSTGCVPFPAVDADGNTSGGLAPTGPHNGGCSSHIGQVYSRSTWHNGVWAIMYAWYFPKDSPSPGLGHRHDWEGIVVWVDNPANPSPQLLSIAYSQHGNFYNVAPTDRNTREQRPLIRYSHAWPLNHSLWIHDQVGGTQPLIGWDDLTPAARHALNTTDFGAANVPFNDHNFINNLRKAWYRLEHHHHHH	failed
MKIFRNPPLVMSGLTLGLFALGNLLKLYHPSLRHLLSIIALLLYLFLILSILKNLSQALEQIKHPLIASIFPTFFMSGMLLAGYIQTFPFLEDWVTLISLTIWWLAFLGNAGLIAYFTIKFVIPFHWEHVFPSWSVLYVGIAVATLTAPISGQYILGQIIFWTCLLLTLLILPLMTIKAYCIGLPETAKPNICTFCAPLSLLLAGYLKTFPPEQSPNTNFVWLLLLASQLLYFFVVLQLPVLLKREFNPGFSAFTFPFAISATALRSAGSYLHLQLPLFQLLVKLEELLASILVLFILYSYLRFLSKQEDLPSN	failed
MAAAMVPGRSESWERGEPGRPALYFCGSIRGGREDRTLYERIVSRLRRFGTVLTEHVAAAELGARGEEAAGGDRLIHEQDLEWLQQADVVVAEVTQPSLGVGYELGRAVAFNKRILCLFRPQSGRVLSAMIRGAADGSRFQVWDYEEGEVEALLDRYFEADPPGQVAASPDPTT	failed
IHNSRWIMTPEVKEDCKMRLFCLPFAGGGALAYRSWCRYMPPEIELCAVQLPGRENRIKDEKFYDINLLIDELVLQILPYLDKPFALYGHSMGGLISFELARRIRKVKGLTPKILFFSGSKAPQLYDHTKDISHLPDELFLKAIKSFNGMPDMFWQDRELIEFKLPTLRADFSVLEGYNYYNEEPLECPISALCGENDKIISKKDMEALALQTKNQFKLRMFDGDHFFINTCRSKVLKSIIEDLN	not failed
MNNNEKKVKYFLRKTAYGLASMSAAFAVCSGIVHADTSSGISASIPHKKQVNLGAVTLKNLISKYRGNDKAIAILLSRVNDFNRASQDTLPQLINSTEAEIRNILYQGQIGKQNKPSVTTHAKVSDQELGKQSRRSQDIIKSLGFLSSDQKDILVKSISSSKDSQLILKFVTQATQLNNAESTKAKQMAQNDVALIKNISPEVLEEYKEKIQRASTKSQVDEFVAEAKKVVNSNKETLVNQANGKKQEIAKLENLSNDEMLRYNTAIDNVVKQYNEGKLNITAAMNALNSIKQAAQEVAQKNLQKQYAKKIERISSKGLALSKKAKEIYEKHKSILPTPGYYADSVGTYLNRFRDKQTFGNRSVWTGQSGLDEAKKMLDEVKKLLKELQDLTRGTKEDKKPDVKPEAKPEAKPDVKPEAKPDVKPEAKPDVKPEAKPDVKPEAKPDVKPEAKPDVKPKAKPDVKPEAKPDVKPDVKPDVKPEAKPEDKPDVKPDVKPEAKPDVKPEAKPEAKPEAKPEAKPEAKPEAKPDVKPEAKPDVKPEAKPEAKPEAKSEAKPEAKLEAKPEAKPATKKSVNTSGNLAAKKAIENKKYSKKLPSTGEAASPLLAIVSLIVMLSAGLITIVLKHKKN	failed
MEEMFETSLKVIEQSGWLAPVLFIMLHVFRQVFFIPVIIICLVGGYLFGSFYGSLYSIIGLTATSALFYGIVHGFPRFLAKVSQLKKRFLGEKESLSLPQMMLLRIVPFIHFHLVSLYVMETRPTFREYMKISFYLSMPPAIIYTLFGDMIHELPLVGTVVFALFIGLLCFMARRKEQRYAWQEFFKA	failed
MQDNNARFPTIAKVLILRQFLWGAAFYGAFVLLTKFFLDDLNYSEADTIMMMGAFGAVGPVFSAVGGFLADKFIGAFRAVYIGYATYLAGFLLLGIGASQLNVPMSILAIALIGFARGLSATCPTVLFGNSYSETNREAFQQGLTVNYSINNLGSFSAKYLFPFLIAYLAYQGVFFVSAILMALNLLMFYKFRKELVSVGNDLDKTPLPLKTWVMFFAGSAAMLGLIFWIFSNLETGKYILYTLGFGAIGYFIYEITQATRAYQYKMVAVLITVCILIVFYFFYGQMFTSMNMYAINLMDDTLLGFIPIHPESNMAFNPLWCFVLGGPMIQLYAWLDRKGYSPTIPTKIAGAFMLSTIAFGLLGLSAGSIGENGKISADWILLVHFFQSGAELIVGALGAGFIFEMVPRYLAAFSIGLRAVAISLSGILAAVIATKIALPKDIVFTPEVVETVYTSYFYMLAQVAAFMAILTLGLSKVIQKLIARGEALEAEEKVDTTMRSNIG	failed
MELQDTIFKRQSVRKFKNQDVSDEDILKMIKAAGAAPSGKNIQNWHFVVIKRRDLMEKIADVITKKQQEILVEMDKVSVDKANRFRKFVKNFTLFYLKAPVLVLVFTKVYNPSGYYELELIDAPKETIDKLFIRNPGMQSLGAAIENFTLSAIELGYGSCWLTSQNYAADEIEAVLEAETGFEKGEYFLGAMLALGVPEDNLKSPSKKPVEEICTFIK	not failed
MSQILTITFPIYAALAVGFLVVRQGWFSSADMRVLGRYVMDIALPALLFNAVASRDVAEVFHPGYMLAFAAAGLATVALSYLWFTLTGTEARRRAVAVMGSSCPNSGFVGYPVMLLTFPDLAGVILALNMLVENVLIIPACLILTDMARGRGQGGIGQRIAGILWGVLKRPMVIGLLLGLAVSLAGVPVPQTVTRLMQMLAASASALALVVIGGSLAGLSWKGSRWHAVQISALKLLLHPALALLAVILVAAIGLPLDPDMGTALILSAAMPMFGIYAVLAQELGHEGMASIALLTATTLAFFTLSGLLWWLT	failed
MGNSITVKRKRAKVMKIDGETFRIKTPVTAREVTADYPGYVLLDSQAVKHFGVRSKPLEPNQTLKPKKTYFLVELPKLPPETTAVDTENKLPYRRVMSGIHVGAKERLDMLMLSRRTVSDVTIGRSDGGDGFGPELGPGHTSVRLRLPRSQITKLMEENNNDASAIAEKILGIYMERSGELGGGRGGVDGRRELGSGEIKAREVSFAGEGGRELPVLWSRSGK	failed
MSSNVPADMINLRLILVSGKTKEFLFSPNDSASDIAKHVYDNWPMDWEEEQVSSPNILRLIYQGRFLHGNVTLGALKLPFGKTTVMHLVARETLPEPNSQGQRNREKTGESNCCVIL	not failed
MDGRPLNRTTRAVAMIAVTIPAHNEQALIGPCLQSIRVAAQHPALQGEAVEIHVALDRCTDQTGVIARAHGAITQEVCGGVGVARAAAASAAIARGAHWLACTDADTRVPPDWLMAQLACAADAFCGVVEVTDWRDHLSQTRAAFLASEIRHDGHPHVHGANLGMRTSAYLAAGGFSNASSSEDVALVAALEQAGMRIARLASPVVNTSARRSARASGGFADYLLRLEAALLAASPSLGLEHHHHHH	failed
MCDRTSKNENRILTISALLASGFAAGGMVLGLLVGSIVIVFDGVYSLVSLLLTLLSLAASSYISKPSKSVFPFGKAVLEPIVIAIKAAVILVVVCFSLYSAISALMTGGREVDTSIATIFGLVNVIGCGYAWWFMAKKSRRFSSGLIDAEKKQWQMDTLLSVAVTVGFIAAWLVSLTPFAHYAVYADPMMMLLMGFYFLKVPFDMLCGALRELLMMTPSKELCQVVGNDVLEIEKVSDHQLKLAGITKVGQELRVNIDLHVDDDMIELDTLEQTRKQLTTRLSKHRFKLQLNLNVANC	failed
ALPPEPKEENAEPVSKLRIRTPSGEFLERRFLASNKLQIVFDFVASKGFPWDEYKLLSTFPRRDVTQLDPNKSLLEVKLFPQETLFLEAKE	failed
LTPLAQMAEGMERQDVSIDKWTLHAKQNLSLTEKEFYQKVQRLKQEYRQYDWVIAREDKMIKAIGTYTDKKNRTSFRLQLVTTLKKHNPTSYLLYEQMSLETPDSWNDTYEQFERETLGIFQEKVVIFTCLNGHLDDNMNIVLQKKANQLLNEFQARSVEHVVEPNFVSISAFTDEWEEYIMTSKHKMNLQIALRSAGMGGKHTVTVGTPIVTTEY	not failed
EVALRHPQSPKPCLIGNCQGGWAILTLMAANPDVAGVAVVNGAPLSYWGGENGKNPMRYIGGIWGGSWIAQMAGDLGNGKFDGANLVMNFEMANPKVTYWSKYYNLFANLDKEEIRFLNFERWWGGFSLLNVNEMRGIIDNLFIGNKLVHGKIPLGQSGNNLDLRNISVPVIIFCSEGDNITPPQQALNWVSDLYSNTLEIKLDGQVIVYLIHKSVGHLGIFVSSEVAKKEHNQIIDLLN	not failed
MSSKEEILSILEAFASTERMGSFFLDNATADFLFIRPSGNPLDAKGFENMWSSGDLVLESAEITKVHKFELLGSNAAICVFTLGSKFTYKGTQNDDLPTVTSIFKKIDEKWKVAWMQRSSGQSDMTLWNE	not failed
